Assay results as given in US20100115639A1 (PIERRE FABRE MEDICAMENT, published 2010).

B1: 224G11 murine monoclonal antibody (antibody, mouse IgG1, V domains shown)
VH: EVQLQQSGPELVKPGASVKISCKTSGYIFTAYTMHWVRQSLGESLDWIGGIKPNNGLANYNQKFKGKATLTVDKSSSTAYMDLRSLTSEDSAVYYCARSEITTEFDYWGQGTALTVSS
VL: DIVLTQSPASLAVSLGQRATISCRASESVDSYANSFMHWYQQKPGQPPKLLIYRASNLESGIPARFSGSGSRTDFTLTINPVEADDVATYYCQQSKEDPLTFGSGTKLEMK
notes: also called CNCM I-3731
B2: 223C4 murine monoclonal antibody (antibody, mouse IgG1, V domains shown)
VH: EVLLQQSGPELVKPGASVKIPCKASGYTFTDYNMDWVKQSHGMSLEWIGDINPNNGGTIFNQKFKGKATLTVDKSSSTAYMELRSLTSEDTAVYYCARGRYVGYYYAMDYWGQGTSVTVSS
VL: DIQMTQSPASLSVSVGETVTITCRASENIYSNLAWYQQKQGKSPQLLVYAATNLVDGVPSRFSGSGSGTQYSLKINSLQSEDFGSYYCQHFWGPPYTFGGGTKLEIK
notes: also called CNCM I-3786
B3: 11E1 murine monoclonal antibody (antibody, V domains shown)
VH: QVQLQQSGAELAKPGASVKMSCKASGYTFTSYWMNWVKQRPGQGLEWIGYINPTTGSTDYNQKLKDKATLTADKSSNTAYMQLSSLTSEDSAVYYCAIGGYGSWFAYWGQGTLVTVSA
VL: QIVLTQSPAIMSASPGEKVTLTCSASSSVSSTYLYWYQQKPGSSPKLWIYTTSILASGVPARFSGSGSGTSYSLTISSMETEDAASYFCHQWSSYPFTFGSGTKLDIK
notes: Used as hybridoma supernatant or purified Mab; also called MAb 11E1; CNCM I-3724
B4: 227H1 murine monoclonal antibody (antibody, mouse IgG1, V domains shown)
VH: EVQLQQSGPELVKPGASMKISCKASGYSFTDYTLNWVKQSHGKTLEWIGLINPYNGGTTYNQKFKGKATLTVDKSSSTAYMELLSLTSEDSAVYYCAREEITKDFDFWGQGTTLTVSS
VL: GIVLTQSPASLAVSLGQRATISCRVSESIDTYGNSFIHWYQQKPGQPPKLLIYRASNLESGIPARFSGSGSRTDFTLTINPVEADDSATYYCQQSNEDPFTFGSGTKLEMK
notes: also called CNCM I-3732
B5: Fab fragment of mAb 11E1 (papain cleavage) (Fab, V domains shown)
VH: QVQLQQSGAELAKPGASVKMSCKASGYTFTSYWMNWVKQRPGQGLEWIGYINPTTGSTDYNQKLKDKATLTADKSSNTAYMQLSSLTSEDSAVYYCAIGGYGSWFAYWGQGTLVTVSA
VL: QIVLTQSPAIMSASPGEKVTLTCSASSSVSSTYLYWYQQKPGSSPKLWIYTTSILASGVPARFSGSGSGTSYSLTISSMETEDAASYFCHQWSSYPFTFGSGTKLDIK
notes: also called 11E1 Fab
B6: Fab fragment of mAb 224G11 (papain cleavage) (Fab, V domains shown)
VH: EVQLQQSGPELVKPGASVKISCKTSGYIFTAYTMHWVRQSLGESLDWIGGIKPNNGLANYNQKFKGKATLTVDKSSSTAYMDLRSLTSEDSAVYYCARSEITTEFDYWGQGTALTVSS
VL: DIVLTQSPASLAVSLGQRATISCRASESVDSYANSFMHWYQQKPGQPPKLLIYRASNLESGIPARFSGSGSRTDFTLTINPVEADDVATYYCQQSKEDPLTFGSGTKLEMK
notes: also called 224G11 Fab

Columns and labels:
[1] = biological target: c-Met receptor on A549 cells (human, UniProt P08581 25-1390); test: cell-based or functional assay
[2] = biological target: C-Met-Rluc and C-Met-K1100A-YFP co-expressed in CHO stable cell lines (R. reniformis), P08581; test: cell-based or functional assay
[3] = biological target: T1, recombinant c-Met-Extra-Cellular Domain (ECD) fused to a human IgG1 Fc domain (R&D Systems, 358MT) (human, UniProt P08581 25-932); test: displacement of [125I]-HGF from immobilized c-Met-Fc (FlashPlate)
T1 construct: extracellular domain; Bought; bivalent (dimeric) fusion, MW 129 kDa as printed; also called c-Met-Fc; c-Met-Fc-Tag His; not shown: human IgG1 Fc domain

[4] = biological target: T2, recombinant SEMA domain of c-Met (UniProt P08581 27-515, limits assumed); test: ELISA, SEMA domain coated at 3 µg/ml, hybridoma supernatants
T2 construct: domain: SEMA; also called SEMA protein
Procedure: The reaction is left to occur for 5 min at room temperature. The reaction is stopped by the addition of 50 μl/well of a 1 M H₂SO₄ solution and read on a plate reader at 450 nm.

[5] = biological target: T1, recombinant c-Met-Extra-Cellular Domain …; test: BIAcore X, Fab as analyte on c-Met-Fc-His captured by anti-His antibody, 25°C
Procedure: (§1) For the assay, an anti-Tag histidine capture antibody was coated on CM5 sensorchips. The running buffer was HBS-EP, the flow rate was 30 μl/min and the test was performed at 25° C. Soluble c-Met (ECD M1)2-Fc-(HHHHHH)₂ antigen was captured on the sensorchip (around 270 RU), and the antibodies to be tested were used in solution as analytes. The sensorship was regenerated using Glycine, HCl pH 1.5 buffer on both flowcells for half a minute.

[6] = biological target: T1, recombinant c-Met-Extra-Cellular Domain …; test: BIAcore X, Fab as analyte on c-Met-Fc-His captured by anti-His antibody, 25°C; column head misprinted
Procedure: as §1

Molecule | agonist effect on c-Met phosphorylation (Mab alone, A549 cells) [1] [%] | antagonist effect on c-Met phosphorylation in presence of HGF (A549 cells) [1] [%] | inhibition of c-Met phosphorylation (phospho c-Met ELISA, A549 cells + HGF 100 ng/ml, antibody 30 µg/ml) [1] [%] | inhibition of dimerization (BRET signal, CHO cells) [2] [%] | basal effect on c-Met phosphorylation (antibody alone, A549 cells) [1] [%] | IC50 [3] [nM] | binding result [4] | Half-Life [5] [h] | Kd [5] [nM] | kon [5] [M⁻¹ s⁻¹] | koff [6] [s⁻¹]
5D5 Mab, generated by Genentech, available at the ATCC (antibody) | 58 | 39 | 42 | – | – | – | – | – | – | – | –
B1 | – | – | 54 | 32 | < 20 | 3 | no binding | – | – | – | –
B2 | – | – | 80 | 55 | < 20 | 2.7 | no binding | – | – | – | –
B3 | – | – | 68 | 69 | < 20 | 20 | – | – | – | – | –
B4 | – | – | 65 | 52 | < 20 | 5.8 | no binding | – | – | – | –
B5 | – | – | – | – | – | – | – | 4.1 | 0.0414 | 1.13e+06 | 4.68e-05
B6 | – | – | – | – | – | – | – | 2.5 | 0.0348 | 2.04e+06 | 7.79e-05
